Reference: IntAct's records for PubMed 21730963

B1: Serine/threonine-protein kinase SCH9 (Saccharomyces cerevisiae), P11792 (parent)
chain: MMNFFTSKSSNQDTGFSSQHQHPNGQNNGNNNSSTAGNDNGYPCKLVSSGPCASSNNGALFTNFTLQTATPTTAISQDLYAMGTTGITSENALFQMKSMNNGISSVNNNNSNTPTIITTSQEETNAGNVHGDTGGNSLQNSEDDNFSSSSTTKCLLSSTSSLSINQREAAAAAYGPDTDIPRGKLEVTIIEARDLVTRSKDSQPYVVCTFESSEFISNGPESLGAINNNNNNNNNNQHNQNQHINNNNENTNPDAASQHHNNNSGWNGSQLPSIKEHLKKKPLYTHRSSSQLDQLNSCSSVTDPSKRSSNSSSGSSNGPKNDSSHPIWHHKTTFDVLGSHSELDISVYDAAHDHMFLGQVRLYPMIHNLAHASQHQWHSLKPRVIDEVVSGDILIKWTYKQTKKRHYGPQDFEVLRLLGKGTFGQVYQVKKKDTQRIYAMKVLSKKVIVKKNEIAHTIGERNILVTTASKSSPFIVGLKFSFQTPTDLYLVTDYMSGGELFWHLQKEGRFSEDRAKFYIAELVLALEHLHDNDIVYRDLKPENILLDANGNIALCDFGLSKADLKDRTNTFCGTTEYLAPELLLDETGYTKMVDFWSLGVLIFEMCCGWSPFFAENNQKMYQKIAFGKVKFPRDVLSQEGRSFVKGLLNRNPKHRLGAIDDGRELRAHPFFADIDWEALKQKKIPPPFKPHLVSETDTSNFDPEFTTASTSYMNKHQPMMTATPLSPAMQAKFAGFTFVDESAIDEHVNNNRKFLQNSYFMEPGSFIPGNPNLPPDEDVIDDDGDEDINDGFNQEKNMNNSHSQMDFDGDQHMDDEFVSGRFEI
partner: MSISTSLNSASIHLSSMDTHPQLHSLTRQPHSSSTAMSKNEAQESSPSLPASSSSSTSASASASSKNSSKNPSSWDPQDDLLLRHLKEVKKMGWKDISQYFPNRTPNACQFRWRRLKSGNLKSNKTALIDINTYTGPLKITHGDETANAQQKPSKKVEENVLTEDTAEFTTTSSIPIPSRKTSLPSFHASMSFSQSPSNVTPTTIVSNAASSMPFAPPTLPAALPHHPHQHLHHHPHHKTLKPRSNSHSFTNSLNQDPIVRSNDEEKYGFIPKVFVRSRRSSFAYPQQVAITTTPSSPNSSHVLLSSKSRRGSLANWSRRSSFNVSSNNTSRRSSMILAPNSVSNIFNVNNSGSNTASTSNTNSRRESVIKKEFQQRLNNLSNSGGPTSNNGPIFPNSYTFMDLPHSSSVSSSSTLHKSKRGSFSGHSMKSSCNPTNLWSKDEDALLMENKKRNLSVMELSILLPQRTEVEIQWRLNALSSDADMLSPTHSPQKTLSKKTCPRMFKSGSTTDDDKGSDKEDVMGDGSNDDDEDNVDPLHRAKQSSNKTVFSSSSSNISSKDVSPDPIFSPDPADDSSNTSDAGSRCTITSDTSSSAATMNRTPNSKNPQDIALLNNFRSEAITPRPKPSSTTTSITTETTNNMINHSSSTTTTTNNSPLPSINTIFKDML
B2: Serine/threonine-protein kinase SCH9 (Saccharomyces cerevisiae), P11792 (parent)
chain: B1 chain
partner: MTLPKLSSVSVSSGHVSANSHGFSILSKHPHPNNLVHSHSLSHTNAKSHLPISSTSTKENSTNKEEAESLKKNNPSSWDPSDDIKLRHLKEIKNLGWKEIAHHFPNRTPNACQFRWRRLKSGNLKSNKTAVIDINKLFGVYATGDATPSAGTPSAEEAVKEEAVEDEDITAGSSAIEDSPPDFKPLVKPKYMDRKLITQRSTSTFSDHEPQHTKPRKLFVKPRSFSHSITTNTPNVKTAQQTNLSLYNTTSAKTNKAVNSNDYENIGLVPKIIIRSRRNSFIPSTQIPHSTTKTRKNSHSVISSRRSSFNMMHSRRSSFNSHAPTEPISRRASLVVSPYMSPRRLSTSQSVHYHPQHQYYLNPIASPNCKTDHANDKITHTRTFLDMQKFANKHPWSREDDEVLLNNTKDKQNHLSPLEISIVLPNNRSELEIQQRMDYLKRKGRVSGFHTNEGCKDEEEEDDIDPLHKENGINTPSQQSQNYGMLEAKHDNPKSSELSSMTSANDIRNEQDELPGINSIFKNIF
B3: Serine/threonine-protein kinase SCH9 (Saccharomyces cerevisiae), P11792 (parent)
chain: B1 chain
partner: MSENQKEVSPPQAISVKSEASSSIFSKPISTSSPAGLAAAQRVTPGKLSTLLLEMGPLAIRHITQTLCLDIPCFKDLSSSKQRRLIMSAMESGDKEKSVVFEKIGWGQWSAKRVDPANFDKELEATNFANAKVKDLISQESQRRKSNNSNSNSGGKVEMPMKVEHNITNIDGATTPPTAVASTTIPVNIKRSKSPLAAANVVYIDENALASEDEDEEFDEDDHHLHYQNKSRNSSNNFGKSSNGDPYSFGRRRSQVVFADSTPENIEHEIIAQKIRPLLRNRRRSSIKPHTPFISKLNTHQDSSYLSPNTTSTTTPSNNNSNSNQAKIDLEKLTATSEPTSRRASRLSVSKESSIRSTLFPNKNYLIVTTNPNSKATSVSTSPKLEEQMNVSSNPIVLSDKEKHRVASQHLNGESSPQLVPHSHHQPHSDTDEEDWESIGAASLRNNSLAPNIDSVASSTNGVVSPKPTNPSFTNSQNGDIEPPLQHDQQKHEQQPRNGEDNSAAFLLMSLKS
B4: Transcriptional regulatory protein TOD6 (Saccharomyces cerevisiae), P34219 (parent)
chain: B2 partner
partner: B1 chain
B5: Transcriptional regulatory protein DOT6 (Saccharomyces cerevisiae), P40059 (parent)
chain: B1 partner
partner: B1 chain

Variants of: B1
Conditions: with dot6_yeast DOT6, P40059

effect of a mutation on the interaction	Variant
increasing interaction	T6E

Variants of: B2
Conditions: with tod6_yeast TOD6, P34219

effect of a mutation on the interaction	Variant
increasing interaction	T6E

Variants of: B3
Conditions: with stb3_yeast STB3, Q12427

effect of a mutation on the interaction	Variant
increasing interaction	T6E

Variants of: B4
Conditions: with sch9_yeast SCH9, P11792

effect of a mutation on the interaction	Variant
decreasing interaction	L6A

Variants of: B5
Conditions: with sch9_yeast SCH9, P11792

effect of a mutation on the interaction	Variant
decreasing interaction	T5A
